The target in experiment [1] is T1, biotin-peptide TSSMEDYVNF (human).
T1 peptide: Biotin-TSSMEDYVNF
As to the kind of experiment: ELISA biotin-peptide; scFv 10 ug/mL; repII. The method, then:
(§1) The peptides were synthesized naked or with a N-terminal Biotin modification with a purity of >98%. All four scFvs were verified by ELISA that can be detected with anti-His antibodies. ELISA was performed for scFv-peptide binding validation. Briefly, naked peptides were coated (50 μg/mL) in 0.58M carbonate-bicarbonate buffer pH9.5, 100 μL/well, 4° C. O/N. Then after blocking (3% BSA-PBS, 300 μL/well 37° C. 1.5 h) and washing (PBS+Tween-20 0.05% v/v (0.05% PBST), wells were incubated with each purified scFv antibody at concentration of 1 μg/mL in PBS at 37° C. 1 h. After washing (0.05% PBST), wells were incubated with secondary antibodies (goat anti-His IgG-HRP) in PBS, 37° C., 30 min. After washing, and incubation with TMB substrate, reactions were stopped with 2M HCl and reading was quantified at OD450.
(§2) ELISA with biotin-conjugated peptides (5 μg/mL) was performed very similar to described above with minor modifications.
(§3) A full curve ELISA was performed for each positive scFv/biotin-peptide pair in order to confirm previous results. Tables 15-17 show ELISA results of the dose-dependent full curve for each positive peptide with scFv “CCR9_HUM”, “Comp-2” and “Comp-3”, respectively.

Experiment [2] addresses T2, biotin-peptide SSMEDYVNFN (human).
T2 peptide: Biotin-SSMEDYVNFN
As to the kind of experiment: ELISA biotin-peptide; scFv 10 ug/mL; repII. How it is done: as §1, §2, §3

Experiment [3] has as its target T3, biotin-peptide SMEDYVNFNF (human).
T3 peptide: Biotin-SMEDYVNFNF
Kind of experiment: ELISA biotin-peptide; scFv 10 ug/mL; repII. How it is done: as §1, §2, §3

In experiment [4] the target is T4, biotin-peptide MEDYVNFNFT (human).
T4 peptide: Biotin-MEDYVNFNFT
Kind of experiment: ELISA biotin-peptide; scFv 10 ug/mL; repII. How it is done: as §1, §2, §3

Experiment [5] concerns the target T1, biotin-peptide TSSMEDYVNF
Kind of experiment: ELISA biotin-peptide; scFv 2.5 ug/mL; repII. The method, then:
as §1, §2, §3

Experiment [6] addresses T2, biotin-peptide SSMEDYVNFN
Kind of experiment: ELISA biotin-peptide; scFv 2.5 ug/mL; repII. The method, then: as §1, §2, §3

Experiment [7] deals with T3, biotin-peptide SMEDYVNFNF
Kind of experiment: ELISA biotin-peptide; scFv 2.5 ug/mL; repII. The method, then: as §1, §2, §3

Experiment [8] addresses T4, biotin-peptide MEDYVNFNFT
As to the kind of experiment: ELISA biotin-peptide; scFv 2.5 ug/mL; repII. The method, then:
as §1, §2, §3

The target of experiment [9] is T5, Peptide 4-BSA (SMEDYVNFNF-C conjugated to BSA) (human).
T5 peptide: SMEDYVNFNFC(BSA)
As to the kind of experiment: ELISA; Ab 0.125 ug/mL; repII. How it is done:
(§4) In brief, plates with each non-conjugated peptide (50 μg/mL) or BSA-conjugated peptide (5 μg/mL) were coated in 0.58M carbonate-bicarbonate buffer pH9.5, 100 μL/well, at 4° C. […] After washing, wells were incubated with the 3, 3′,5,5′-Tetramethylbenzidine (TMB) HRP substrate and reactions were stopped with 2M HCl and OD450 was recorded.

Experiment [10] has as its target T6, Peptide 1, non-conjugated (MADDYGSEST-C) (human).
T6 construct: With the extra C-terminal Cys
T6 peptide: MADDYGSESTC
Kind of experiment: ELISA; Ab 0.125 ug/mL; repII. The method, then:
as §4

The target in experiment [11] is T7, Peptide 2, non-conjugated (GSESTSSMED-C) (human).
T7 construct: With the extra C-terminal Cys
T7 peptide: GSESTSSMEDC
Kind of experiment: ELISA; Ab 0.125 ug/mL; repII. The method, then:
as §4

In experiment [12] the target is T8, Peptide 3, non-conjugated (SSMEDYVNFN-C) (human).
T8 construct: With the extra C-terminal Cys
T8 peptide: SSMEDYVNFNC
As to the kind of experiment: ELISA; Ab 0.125 ug/mL; repII. How it is done:
as §4

Experiment [13] addresses T9, Peptide 4, non-conjugated (SMEDYVNFNF-C) (human).
T9 construct: With the extra C-terminal Cys
T9 peptide: SMEDYVNFNFC
Kind of experiment: ELISA; Ab 0.125 ug/mL; repII. How it is done: as §4

In experiment [14] the target is T10, BSA (negative control coating) (bovine, UniProt P02769 25-607).
T10 construct: also called Negative control BSA
Kind of experiment: ELISA; Ab 0.125 ug/mL; repII. The method, then: as §4

For experiment [15], the target named is T11, Peptide 2-BSA (GSESTSSMED-C conjugated to BSA) (human).
T11 peptide: GSESTSSMEDC(BSA)
Kind of experiment: ELISA; Ab 0.125 ug/mL; repII. How it is done: as §4

The target of experiment [16] is T12, biotin-peptide MTPTDFTSPI (human, also: prints MTPTDFTSP, without I10).
T12 peptide: Biotin-MTPTDFTSPI
As to the kind of experiment: ELISA, biotin-peptide.

The target in experiment [17] is T13, biotin-peptide TDFTSPIPNM (human).
T13 peptide: Biotin-TDFTSPIPNM
As to the kind of experiment: ELISA, biotin-peptide.

Experiment [18] has as its target T14, biotin-peptide TSPIPNMADD (human).
T14 peptide: Biotin-TSPIPNMADD
Kind of experiment: ELISA, biotin-peptide.

In experiment [19] the target is T15, biotin-peptide IPNMADDYGS (human).
T15 peptide: Biotin-IPNMADDYGS
Kind of experiment: ELISA, biotin-peptide.

Experiment [20] concerns the target T16, biotin-peptide MADDYGSEST (human).
T16 peptide: Biotin-MADDYGSEST
As to the kind of experiment: ELISA, biotin-peptide.

Experiment [21] has as its target T17, biotin-peptide DYGSESTSSM (human).
T17 peptide: Biotin-DYGSESTSSM
As to the kind of experiment: ELISA, biotin-peptide.

For experiment [22], the target named is T18, biotin-peptide SESTSSMEDY (human).
T18 peptide: Biotin-SESTSSMEDY
As to the kind of experiment: ELISA, biotin-peptide.

In experiment [23] the target is T1, biotin-peptide TSSMEDYVNF
Kind of experiment: ELISA, biotin-peptide.

The target of experiment [24] is T2, biotin-peptide SSMEDYVNFN
As to the kind of experiment: ELISA, biotin-peptide.

Experiment [25] addresses T3, biotin-peptide SMEDYVNFNF
Kind of experiment: ELISA, biotin-peptide.

Experiment [26] concerns the target T4, biotin-peptide MEDYVNFNFT
As to the kind of experiment: ELISA, biotin-peptide.

For experiment [27], the target named is T19, biotin-peptide YVNFNFTDFY (human).
T19 peptide: Biotin-YVNFNFTDFY
Kind of experiment: ELISA, biotin-peptide.

The target of experiment [28] is T20, biotin-peptide FNFTDFYCEK (human).
T20 peptide: Biotin-FNFTDFYCEK
Kind of experiment: ELISA, biotin-peptide.

Experiment [29] has as its target T21, biotin-peptide TDFYCEKNNV (human).
T21 peptide: Biotin-TDFYCEKNNV
As to the kind of experiment: ELISA, biotin-peptide.

Experiment [30] has as its target T22, biotin-peptide YCEKNNVRQF (human).
T22 peptide: Biotin-YCEKNNVRQF
As to the kind of experiment: ELISA, biotin-peptide.

The next experiment concerns the target T23, biotin-peptide KNNVRQFAS (human).
T23 peptide: Biotin-KNNVRQFAS
Kind of experiment: ELISA, biotin-peptide.

Where no end group is shown, it is not given here. The star is where a group is joined. Biotin = O=C1N[C@H]2[C@H](CS[C@H]2CCCCC(=O)*)N1

T10 sequence (P02769 25-607 limits assumed): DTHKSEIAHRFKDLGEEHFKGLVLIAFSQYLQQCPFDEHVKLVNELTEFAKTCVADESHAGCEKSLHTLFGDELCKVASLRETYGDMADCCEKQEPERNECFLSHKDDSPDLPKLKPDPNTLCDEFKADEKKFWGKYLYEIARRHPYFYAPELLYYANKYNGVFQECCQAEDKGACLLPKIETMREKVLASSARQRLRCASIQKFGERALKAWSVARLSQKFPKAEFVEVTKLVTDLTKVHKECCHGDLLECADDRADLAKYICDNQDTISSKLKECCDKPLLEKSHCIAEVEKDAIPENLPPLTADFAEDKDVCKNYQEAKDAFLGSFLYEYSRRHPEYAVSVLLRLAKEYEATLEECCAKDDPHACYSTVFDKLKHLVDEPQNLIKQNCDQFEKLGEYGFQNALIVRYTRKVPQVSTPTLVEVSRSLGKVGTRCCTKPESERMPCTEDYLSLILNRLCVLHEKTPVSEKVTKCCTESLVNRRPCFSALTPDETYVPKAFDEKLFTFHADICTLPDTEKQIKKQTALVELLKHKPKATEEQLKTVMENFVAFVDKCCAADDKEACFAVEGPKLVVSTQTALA

B1: CCR9_HUM2 scFv (humanized anti-CCR9 scFv, SEQ ID NO: 17 with C-terminal 6xHis tag) (scFv)
scFv: QVQLVQSGAEVKKPGASVKVSCTASGYSFTDYIIYWVKQAHGQSLEWMGYIDPNNYNTRYSQKFQGKVTITVDKSSTSAYMELNSLTSDDTAVYYCARDVYWGQGTTVTVSSGGGGSGGGGSGGGGSGGGGSDVVMTQTPLSLSVTPGQPASISCRSSQSLVHSNGKTYLQWYLQKPGQSPKLLIYKVSNRFSGVPDRFSGSGSGTDFTLKISRVEAEDVGVYFCAQSTHVWTFGGGTKVEIKRAHHHHHH
Regarding B1, the OD450 in experiment [1] was 1.36 OD; in experiment [2], 1.87 OD; in experiment [3], 1.85 OD; in experiment [4], 1.79 OD; in experiment [5] it was 1.4 OD; in experiment [6], 1.78 OD. For the same molecule, the OD450 in experiment [7] is 1.77 OD; in experiment [8] it was 1.64 OD.

B2: anti-CCR9 antibody clone 115 (murine, from hybridoma #115) (antibody, V domains shown)
VH: QVQLKQSGPELVKPGTSVRVSCTASGYSFTDYIIYWVKQSHGRSLEWIGYIDPNNYNTRYSQKFKGKATLTVDKSSTSAFMHLNSLTSDDSAVYYCARDVYWGQGTTLTVSS
VL: DVVMTQTPLSLTVSLGDQASISCRSSQSLVHSNGKTYLQWYLQKPGQSPKLLIYKVSNRFSGVPDRFSGSGSGTDFTLKISRVEAEDLGVYFCAQSTHVWTFGGGTKLEIKR
notes: Mouse IgG1
Regarding B2, the OD450 in experiment [9] came to 2.39 OD; in experiment [10], 0.02 OD; in [11], 0.01 OD; in [12], 1.77 OD; in [13], 1.84 OD; in experiment [14] it was 0.01 OD. In [15], this molecule showed an OD450 of 0.01 OD.

B3: Comparative antibody 1 (Comp-1) scFv, SEQ ID NO: 10 from WO2023/037125 A1, His-tagged (scFv)
scFv: QVQLKESGPGLVQPSQTLSLTCTVSGFSVASYDMHWVRLPPGKGLEWMGIIWANGNTHYNSGLKSRLSISRDTSKSQVFLKMNSLQTEDTAIYFCTRGGFAYWGQGTLVTVSSGGGGSGGGGSGGGGSGGGGSDVVMTQTPVSLSVSLGGQVSISCRSSQSLVHNNGNTYLSWYLQKPGQSPQLLIYKVSNRFSGVSDRFSGSGSGTDFTLKISRVEPDDLGVYYCGQGTQYPTFGGGTKLELKHHHHHH
For the molecule B3, the binding result in [16], in experiment [17], in experiment [18], in [19], in experiment [20] and in experiment [21] was “no binding (tested: 10 ug/mL)” in each case. In addition, the binding result in experiment [22], in experiment [23], in experiment [24], in experiment [25], in experiment [26] and in [27] was “no binding (tested: 10 ug/mL)” throughout. The binding result (in [28]; in experiment [29]; in [30]; in the experiment with biotin-peptide KNNVRQFAS) was “no binding (tested: 10 ug/mL)” throughout.
